The conditions of this data set: Bacillus amyloliquefaciens, pH 6.3, Thermal, CD, Mes 50 mM, whole UniProt chain shown.

B1: Ribonuclease wild type, P00648 (protein)
chain: MMKMEGIALKKRLSWISVCLLVLVSAAGMLFSTAAKTETSSHKAHTEAQVINTFDGVADYLQTYHKLPDNYITKSEAQALGWVASKGNLADVAPGKSIGGDIFSNREGKLPGKSGRTWREADINYTSGFRNSDRILYSSDWLIYKTTDHYQTFTKIR
Usually Tm stands for the temperature at which the thermal transition is half complete. Take B1: the Tm was 52.2 °C and the “unfolding enthalpy (van 't Hoff)” value turned out to be 137 kcal/mol. Further, the unfolding free energy (25 °C) stood at 9.5 kcal/mol.
